# Patent publication US20250340662A1
# T1: Human v6-peptide (human)
# T1 sequence (peptide, N-terminal biotin): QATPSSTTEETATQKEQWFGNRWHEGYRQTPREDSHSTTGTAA
# Key:
# [1] = biological target: CD44v6 on cultured cancer cells (BHT-101, ACT-1, A431) (human) (UniProt P16070); test: live BHT-101 cells; apparent KD
# [2] = biological target: CD44v6 on cultured cancer cells (BHT-101, ACT-1, A431) (human) (UniProt P16070); test: LigandTracer, 125I-IgG4 on BHT-101 cells
# [3] = biological target: Human CD44v6 iso4-Fc (human) (UniProt P16070); test: SPR SCK, antibody immobilised, CD44v6-Fc injected; apparent KD
# [4] = biological target: Human CD44v6 iso4-Fc (human) (UniProt P16070); test: SPR SCK, antibody immobilised, CD44v6-Fc injected
# [5] = biological target: Cynomolgus v6-peptide (cynomolgus); test: SPR SCK, antibody immobilised, peptide injected
# Human v6-peptide (human) = biological target: T1, Human v6-peptide (human); test: SPR SCK, antibody immobilised, peptide injected
# Cynomolgus v6-peptide (cynomolgus), sequence (peptide, as listed by the source): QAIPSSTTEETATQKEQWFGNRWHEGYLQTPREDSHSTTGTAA
# Human CD44v6 iso4-Fc (human), sequence (P16070 other isoform, or with tags, fused parts or gaps limits assumed): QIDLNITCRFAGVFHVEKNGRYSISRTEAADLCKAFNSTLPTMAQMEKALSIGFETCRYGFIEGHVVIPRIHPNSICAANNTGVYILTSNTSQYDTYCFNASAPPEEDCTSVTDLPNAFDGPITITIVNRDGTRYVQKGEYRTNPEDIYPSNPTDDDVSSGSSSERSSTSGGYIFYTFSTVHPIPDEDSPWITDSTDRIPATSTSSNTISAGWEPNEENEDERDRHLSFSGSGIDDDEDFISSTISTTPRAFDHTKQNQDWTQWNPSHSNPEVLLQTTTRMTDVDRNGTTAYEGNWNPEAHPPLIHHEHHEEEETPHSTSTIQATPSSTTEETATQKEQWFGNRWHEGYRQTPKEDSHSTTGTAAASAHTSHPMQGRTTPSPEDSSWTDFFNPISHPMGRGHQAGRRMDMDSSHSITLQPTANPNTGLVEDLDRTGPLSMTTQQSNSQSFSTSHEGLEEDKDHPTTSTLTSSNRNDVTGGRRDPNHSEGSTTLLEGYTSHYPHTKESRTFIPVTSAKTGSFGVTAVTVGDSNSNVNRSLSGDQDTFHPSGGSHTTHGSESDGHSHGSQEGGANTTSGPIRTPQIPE
Binder,Kd [1],Kd [2],other results
"AL-MN114-18 hIgG4 (antibody, V domains shown) VH: EVQLLESGGGLVQPGGSLRLSCAASGFSFGSFAMSWVRQAPGKGLEWVSAISGGGSSTYYADSVKGRFTISRDNSKNTLYLQMNSLRAEDTAVYYCARHYYSDSDYRSSAAMDYWGQGTLVTVSS VL: DIQMTQSPSSLSASVGDRVTITCRASQTIASYLNWYQQKPGKAPKLLIYTASNLQSGVPSRFSGSGSGTDFTLTISSLQPEDFATYYCQQDLYLLTFGQGTKLEIK",< 0.2 nM,0.02 nM,–
"AL-MN114-126 hIgG4 (antibody, V domains shown) VH: EVQLLESGGGLVQPGGSLRLSCAASGFTFSSYAMSWVRQAPGKGLEWVSAISAGGSSTYYADSVKGRFTISRDNSKNTLYLQMNSLRAEDTAVYYCARHYYSDSDYRSSAAMDYWGQGTLVTVSS VL: DIQMTQSPSSLSASVGDRVTITCRASQSISSYLNWYQQKPGKAPKLLIYAASSLQSGVPSRFSGSGSGTDFTLTISSLQPEDFATYYCQQDLYLLTFGQGTKLEIK",< 0.2 nM,0.04 nM,–
"AL-MN114-71 hIgG4 (antibody, V domains shown) VH: EVQLLESGGGLVQPGGSLRLSCAASGFSFRSFAMSWVRQAPGKGLEWVSAISGGGSSTFYADSVKGRFTISRDNSKNTLYLQMNSLRAEDTAVYYCARHYYSDSDYRSSAAMDYWGQGTLVTVSS VL: DIQMTQSPSSLSASVGDRVTITCRASQSISSYLNWYQQKPGKAPKLLIYAASTLQSGVPSRFSGSGSGTDFTLTISSLQPEDFATYYCQQDLYLLTFGQGTKLEIK",< 0.2 nM,0.02 nM,–
"AL-MN114-132 hIgG4 (antibody, V domains shown) VH: EVQLLESGGGLVQPGGSLRLSCAASGFTFSSYAMSWVRQAPGKGLEWVSAISGGGSSTYYADSVKGRFTISRDNSKNTLYLQMNSLRAEDTAVYYCARHYYSDSDYRSSAAMDYWGQGTLVTVSS VL: DIQMTQSPSSLSASVGDRVTITCRASQSISSYLNWYQQKPGKAPKLLIYAASSLQSGVPSRFSGSGSGTDFTLTISSLQPEDFATYYCQQDLYLLTFGQGTKLEIK",< 0.2 nM,–,–
"AL-MN114-14 hIgG4 (antibody, V domains shown) VH: EVQLLESGGGLVQPGGSLRLSCAASGFTFSSYAMSWVRQAPGKGLEWVSAISGSGRSTFYADSVKGRFTISRDNSKNTLYLQMNSLRAEDTAVYYCARHYYSDSDYRSSAAMDYWGQGTLVTVSS VL: DIQMTQSPSSLSASVGDRVTITCRASQSISSYLNWYQQKPGKAPKLLIYAASSLQSGVPSRFSGSGSGTDFTLTISSLQPEDFATYYCQQDLYLLTFGQGTKLEIK",< 0.2 nM,–,–
"AL-MN114-79 hIgG4 (antibody, V domains shown) VH: EVQLLESGGGLVQPGGSLRLSCAASGFTFRSFAMSWVRQAPGKGLEWVSTISAGGSSTFYADSVKGRFTISRDNSKNTLYLQMNSLRAEDTAVYYCARHYYSDSDYRSSAAMDYWGQGTLVTVSS VL: DIQMTQSPSSLSASVGDRVTITCRASQSIANYLNWYQQKPGKAPKLLIYAASTLQSGVPSRFSGSGSGTDFTLTISSLQPEDFATYYCQQDLYLLTFGQGTKLEIK",< 0.2 nM,0.03 nM,–
"AL-MN114-19 hIgG4 (antibody, V domains shown) VH: EVQLLESGGGLVQPGGSLRLSCAASGFSFGSYAMSWVRQAPGKGLEWVSAISGGGSSTFYADSVKGRFTISRDNSKNTLYLQMNSLRAEDTAVYYCARHYYSDSDYRSSAAMDYWGQGTLVTVSS VL: DIQMTQSPSSLSASVGDRVTITCRASQSISSYLNWYQQKPGKAPKLLIYSASSLQSGVPSRFSGSGSGTDFTLTISSLQPEDFATYYCQQDLYLLTFGQGTKLEIK",< 0.2 nM,0.04 nM,–
"AL-MN114-93 hIgG4 (antibody, V domains shown) VH: EVQLLESGGGLVQPGGSLRLSCAASGFSFGSFAMSWVRQAPGKGLEWVSAISAGGSSTYYADSVKGRFTISRDNSKNTLYLQMNSLRAEDTAVYYCARHYYSDSDYRSSAAMDYWGQGTLVTVSS VL: DIQMTQSPSSLSASVGDRVTITCRASQSISSYLNWYQQKPGKAPKLLIYAASSLQSGVPSRFSGSGSGTDFTLTISSLQPEDFATYYCQQDLYLLTFGQGTKLEIK",< 0.2 nM,–,–
"AL-MN114-23 hIgG4 (antibody, V domains shown) VH: EVQLLESGGGLVQPGGSLRLSCAASGFSFRNFAMSWVRQAPGKGLEWVSAISGGGGSTFYADSVKGRFTISRDNSKNTLYLQMNSLRAEDTAVYYCARHYYSDSDYRSSAAMDYWGQGTLVTVSS VL: DIQMTQSPSSLSASVGDRVTITCRASQNISSYLNWYQQKPGKAPKLLIYSASILQSGVPSRFSGSGSGTDFTLTISSLQPEDFATYYCQQDLYLLTFGQGTKLEIK",< 0.2 nM,–,–
"AL-MN114-42 hIgG4 (antibody, V domains shown) VH: EVQLLESGGGLVQPGGSLRLSCAASGFTFSSYAMSWVRQAPGKGLEWVSAISGGGYSTYYADSVKGRFTISRDNSKNTLYLQMNSLRAEDTAVYYCARHYYSDSDYRSSAAMDYWGQGTLVTVSS VL: DIQMTQSPSSLSASVGDRVTITCRASQTIGSYLNWYQQKPGKAPKLLIYSASILQSGVPSRFSGSGSGTDFTLTISSLQPEDFATYYCQQDLYLLTFGQGTKLEIK",< 0.2 nM,0.04 nM,–
"BIWA4 IgG1 LALA (antibody, from another filing, V domains shown) VH: EVQLVESGGGLVKPGGSLRLSCAASGFTFSSYDMSWVRQAPGKGLEWVSTISSGGSYTYYLDSIKGRFTISRDNAKNSLYLQMNSLRAEDTAVYYCARQGLDYWGRGTLVTVSS VL: EIVLTQSPATLSLSPGERATLSCSASSSINYIYWYQQKPGQAPRLLIYLTSNLASGVPARFSGSGSGTDFTLTISSLEPEDFAVYYCLQWSSNPLTFGGGTKVEIKR",–,–,Kd [3]: 0.72 nM; koff [4]: 0.00027 s⁻¹; kon [4]: 370000 M⁻¹ s⁻¹; Kd [5]: 12 nM; koff [5]: 0.0035 s⁻¹; kon [5]: 280000 M⁻¹ s⁻¹; Kd (Human v6-peptide (human)): 15 nM; koff (Human v6-peptide (human)): 0.0035 s⁻¹; kon (Human v6-peptide (human)): 240000 M⁻¹ s⁻¹

# More lines, main results first:
Kd [1],Kd [2],Binder,other results
< 0.2 nM,0.02 nM,"AL-MN114-435 hIgG4 (antibody, V domains shown) VH: EVQLLESGGGLVQPGGSLRLSCAASGFTFSSYAMSWVRQAPGKGLEWVSAISAGGSSTFYADSVKGRFTISRDNSKNTLYLQMNSLRAEDTAVYYCARHYYSDSDYRSSAAMDYWGQGTLVTVSS VL: DIQMTQSPSSLSASVGDRVTITCRASQSISSYLNWYQQKPGKAPKLLIYAASSLQSGVPSRFSGSGSGTDFTLTISSLQPEDFATYYCQQDLYLLTFGQGTKLEIK",–
< 0.2 nM,–,"AL-MN114-439 hIgG4 (antibody, V domains shown) VH: EVQLLESGGGLVQPGGSLRLSCAASGFSFGSFAMSWVRQAPGKGLEWVSAISAGGSSTFYADSVKGRFTISRDNSKNTLYLQMNSLRAEDTAVYYCARHYYSDSDYRSSAAMDYWGQGTLVTVSS VL: DIQMTQSPSSLSASVGDRVTITCRASQSISSYLNWYQQKPGKAPKLLIYAASSLQSGVPSRFSGSGSGTDFTLTISSLQPEDFATYYCQQDLYLLTFGQGTKLEIK",–
< 0.2 nM,0.02 nM,"AL-MN114-444 hIgG4 (antibody, V domains shown) VH: EVQLLESGGGLVQPGGSLRLSCAASGFTFRSFAMSWVRQAPGKGLEWVSAISGGGSSTFYADSVKGRFTISRDNSKNTLYLQMNSLRAEDTAVYYCARHYYSDSDYRSSAAMDYWGQGTLVTVSS VL: DIQMTQSPSSLSASVGDRVTITCRASQSIGSYLNWYQQKPGKAPKLLIYSASSLQSGVPSRFSGSGSGTDFTLTISSLQPEDFATYYCQQDLYLLTFGQGTKLEIK",–
< 0.2 nM,0.1 nM,"AL-MN114-423 hIgG4 (antibody, V domains shown) VH: EVQLLESGGGLVQPGGSLRLSCAASGFTFSSYAMSWVRQAPGKGLEWVSAISAGGTSTYYADSVKGRFTISRDNSKNTLYLQMNSLRAEDTAVYYCARHYYSDSDYRSSAAMDYWGQGTLVTVSS VL: DIQMTQSPSSLSASVGDRVTITCRASQSISSYLNWYQQKPGKAPKLLIYAASSLQSGVPSRFSGSGSGTDFTLTISSLQPEDFATYYCQQDLYLLTFGQGTKLEIK",–
< 0.2 nM,–,"AL-MN114-145 hIgG4 (antibody, V domains shown) VH: EVQLLESGGGLVQPGGSLRLSCAASGFSFSSFAMSWVRQAPGKGLEWVSAISAGGSSTFYADSVKGRFTISRDNSKNTLYLQMNSLRAEDTAVYYCARHYYSDSDYRSSAAMDYWGQGTLVTVSS VL: DIQMTQSPSSLSASVGDRVTITCRASQSIGSYLNWYQQKPGKAPKLLIYSASNLQSGVPSRFSGSGSGTDFTLTISSLQPEDFATYYCQQDLYLLTFGQGTKLEIK",–
< 0.2 nM,0.06 nM,"AL-MN114-429 hIgG4 (antibody, V domains shown) VH: EVQLLESGGGLVQPGGSLRLSCAASGFSFSSFAMSWVRQAPGKGLEWVSAISAGGSSTYYADSVKGRFTISRDNSKNTLYLQMNSLRAEDTAVYYCARHYYSDSDYRSSAAMDYWGQGTLVTVSS VL: DIQMTQSPSSLSASVGDRVTITCRASQSISSYLNWYQQKPGKAPKLLIYAASSLQSGVPSRFSGSGSGTDFTLTISSLQPEDFATYYCQQDLYLLTFGQGTKLEIK",–
< 0.2 nM,0.03 nM,"AL-MN114-451 hIgG4 (antibody, V domains shown) VH: EVQLLESGGGLVQPGGSLRLSCAASGFTFSSYAMSWVRQAPGKGLEWVSAISAGGYSTYYADSVKGRFTISRDNSKNTLYLQMNSLRAEDTAVYYCARHYYSDSDYRSSAAMDYWGQGTLVTVSS VL: DIQMTQSPSSLSASVGDRVTITCRASQSIGSYLNWYQQKPGKAPKLLIYTASTLQSGVPSRFSGSGSGTDFTLTISSLQPEDFATYYCQQDLYLLTFGQGTKLEIK",–
< 0.2 nM,–,"AL-MN114-452 hIgG4 (antibody, V domains shown) VH: EVQLLESGGGLVQPGGSLRLSCAASGFSFSSYAMSWVRQAPGKGLEWVSAISAGGSSTFYADSVKGRFTISRDNSKNTLYLQMNSLRAEDTAVYYCARHYYSDSDYRSSAAMDYWGQGTLVTVSS VL: DIQMTQSPSSLSASVGDRVTITCRASQSIGSYLNWYQQKPGKAPKLLIYSASSLQSGVPSRFSGSGSGTDFTLTISSLQPEDFATYYCQQDLYLLTFGQGTKLEIK",–
< 0.2 nM,–,"AL-MN114-460 hIgG4 (antibody, V domains shown) VH: EVQLLESGGGLVQPGGSLRLSCAASGFSFGSYAMSWVRQAPGKGLEWVSAISAGGSSTYYADSVKGRFTISRDNSKNTLYLQMNSLRAEDTAVYYCARHYYSDSDYRSSAAMDYWGQGTLVTVSS VL: DIQMTQSPSSLSASVGDRVTITCRASQSIGSYLNWYQQKPGKAPKLLIYSASSLQSGVPSRFSGSGSGTDFTLTISSLQPEDFATYYCQQDLYLLTFGQGTKLEIK",–
